Results reported in patent US20210261626A1 (DONALDSON, published 2021).

Biological target: human serum albumin (human, UniProt P02768 25-609)
Assay: phase separation pull-down with 0.6 M NaCl and centrifugation, supernatant and pellet on SDS-PAGE

human serum albumin, sequence (P02768 25-609 limits assumed): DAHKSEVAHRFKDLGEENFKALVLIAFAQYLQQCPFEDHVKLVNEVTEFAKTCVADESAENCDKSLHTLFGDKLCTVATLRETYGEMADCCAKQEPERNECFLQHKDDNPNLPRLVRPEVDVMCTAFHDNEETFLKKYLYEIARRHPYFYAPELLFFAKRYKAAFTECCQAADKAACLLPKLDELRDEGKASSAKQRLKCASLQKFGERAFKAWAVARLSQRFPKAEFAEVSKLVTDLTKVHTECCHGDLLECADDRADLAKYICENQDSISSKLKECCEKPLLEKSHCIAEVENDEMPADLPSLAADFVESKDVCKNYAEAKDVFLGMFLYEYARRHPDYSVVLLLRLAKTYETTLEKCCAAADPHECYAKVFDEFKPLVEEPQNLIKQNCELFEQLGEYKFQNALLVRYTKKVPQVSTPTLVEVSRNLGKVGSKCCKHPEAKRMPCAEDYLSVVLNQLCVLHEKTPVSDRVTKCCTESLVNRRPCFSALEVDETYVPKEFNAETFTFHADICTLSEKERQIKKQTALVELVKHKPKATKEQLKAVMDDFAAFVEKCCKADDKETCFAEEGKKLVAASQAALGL

B1: ELP1,80-CapG (designed binder)
chain: MSKGPGVGVPGLGVPGVGVPGLGVPGVGVPGVGVPGLGVPGVGVPGLGVPGVGVPVGVPGLGVPGVGVPGLGVPGVGVPGVGVPGLGVPGVGVPGLGVPGVGVPVGVPGLGVPGVGVPGLGVPGVGVPGVGVPGLGVPGVGVPGLGVPGVGVPVGVPGLGVPGVGVPGLGVPGVGVPGVGVPGLGVPGVGVPGLGVPGVGVPVGVPGLGVPGVGVPGLGVPGVGVPGVGVPGLGVPGVGVPGLGVPGVGVPVGVPGLGVPGVGVPGLGVPGVGVPGVGVPGLGVPGVGVPGLGVPGVGVPVGVPGLGVPGVGVPGLGVPGVGVPGVGVPGLGVPGVGVPGLGVPGVGVPVGVPGLGVPGVGVPGLGVPGVGVPGVGVPGLGVPGVGVPGLGVPGVGVPGTYKLILNGKTLKGETTTEAVDAATAEKVFKQYANDNGVDGEWTYDDATKTFTVTEG
notes: Expressed in E. coli; also called fusion comprised of an optimal ELP and a Protein G domain
- binding result: no binding
